Source: patent US20150267232A1, “IN VIVO AND IN VITRO CARBENE INSERTION AND NITRENE TRANSFER REACTIONS CATALYZED BY HEME ENZYMES” (California Institute of Technology, priority 2012, published 2015)

Key:
Type in all cases: biochemical
[1] = Small-scale anaerobic C—H amination with purified enzymes, azide 1; details: catalyst loading 0.5 mol %; NADPH; anaerobic
Method: Activities are presented in TTN. […] Yields and enantioselectivies determined by HPLC analysis. * (S−R)/(S+R). nd=not determined.
Enzymes used as purified catalysts were expressed as previously described (Lewis, J. C. et al., Proc. Natl. Acad. Sci. U.S.A. 106, 16550-16555 (2009)), and were purified by anion-exchange chromatography (for holoenzymes) or Ni-NTA chromatography (for isolated heme domains). Concentrations of P450 or P411 enzymes were determined as previously reported (Omura, T. & Sato, R., J. Biol. Chem. 239, 2370-2378 (1964); Vatsis, K. P. et al., J. Inorg. Biochem. 91, 542-553 (2002)). Small-scale reactions (400 μL) were conducted in 2 mL crimp vials containing degassed buffer (0.1 M potassium phosphate pH 8.0), enzyme (0.1-0.5% catalyst loading) and oxygen depletion system (10× stock solution containing 14,000 U/mL catalase, 1,000 U/mL glucose oxidase dissolved in 0.1 M KPi pH 8.0). Enzyme (P450 or P411) solution and oxygen depletion mixture were added to the vial with a small stir bar before crimp-sealing. […] Reactions were stirred at room temperature for 24 h under positive argon pressure.
Small-scale reactions (400 μL) were conducted in 2 mL crimp vials (Agilent Technologies, San Diego, Calif.) containing buffer (0.1 M potassium phosphate pH 8.0), enzyme (0.1-0.5% catalyst loading) and oxygen depletion system (10× stock solution containing 14,000 U/mL catalase, 1,000 U/mL glucose oxidase dissolved in 0.1 M KPi pH 8.0). Enzyme (P450 or P411) solution and oxygen depletion mixture were added to the vial with a small stir bar before crimp-sealing. […] In the meantime, the headspace of the sealed 2 mL reaction vial with the P450 solution was made anaerobic by flushing argon over the protein solution (with no bubbling). The buffer/reductant/glucose solution (270 μL) was syringed into the reaction vial with continuous argon purge of the vial headspace. An arylsulfonyl azide solution in DMSO (10 μL, 80 mM) was added to the reaction vial via a glass syringe, and the reaction was left stirring for 24 h at room temperature under positive argon pressure. […] Reactions were quenched by adding 30 μL 3 M HCl under argon. To the vials were then added acetonitrile (430 uL) and internal standard (o-toluenesulfonamide 10 mM in 50% acetonitrile 50% water, 1 mM final concentration). This mixture was then transferred to a microcentrifuge tube, and centrifuged at 17,000×g for 10 minutes. A portion (20 μL) of the supernatant was then analyzed by HPLC. For LC-MS analysis, the quenched reaction mixture was extracted twice with ethyl acetate (2×350 μL), dried under a light argon stream and resuspended in 50% water-acetonitrile (100 μL). For chiral HPLC the reactions were extracted as above with ethyl acetate, dried and resuspended in DMSO (100 μL) and then C18 purified as described above. The C18 purified material was dried, and resuspended in acetonitrile, and then injected onto the chiral HPLC system for analysis. Sultam formation was quantified comparison of integrated peak areas of internal standard and sultam at 220 nm to a calibration curve made using synthetically produced sultam and internal standard.
Purified enzymes were screened for activity in small scale reactions (400 μL) under anaerobic conditions as described above. Reactions were carried out using 0.5% mol of enzyme (10 μM) with respect to the triethylsulfonyl azide substrate 1 (2 mM). Standard reaction conditions described above were employed. Diethyl benzosultam product 3 (FIG. 18) was analyzed and quantified by reversed-phase HPLC (see above).
Small-scale reactions (400 μL total volume) were set up and worked up. Control reactions were performed with both the holoenzyme (BM3 with covalently linked reductase domain) and the isolated heme domain. […] Reactions of the complete system with heme domain (CS heme) included 2 mM Na2S2O4 rather than NADPH unless otherwise indicated in the table. […]

[2] = N—H insertion, aniline with ethyl diazo acetate (EDA); details: protein 10 uM, EDA 8.5 mM, aniline 20 mM, Na2S2O4 10 mM, 12 h; for % Yield: product 4.3
From the text: We have found a variety of P450 variants to be general catalysts for carbenoid N—H insertion. We combined aniline with EDA in the presence of a reductant (Na2S2O4) under argon atmosphere and tested the mixture with seven P450BM3 variants previously identified as competent catalysts for cyclopropanation (Coelho, P. et al., Science. 2013, 339, 307-310). In choosing this set of P450s, we hypothesized that cyclopropanation activity could correlate with ability to generate the iron-carbenoid intermediate that is also necessary for N—H insertion. Whereas wild type BM3 (WT-BM3 (SEQ ID NO:1), Table 20, entry 1) provided only trace amounts of the desired product (4.3), a few variants gave 4.3 in good yields after 12 h at room temperature. In particular, variant H2-5-F10 which is derived from a thermostable P450BM3 lineage (Lewis, J. C. et al. ChemBioChem, 2010, 11, 2502-2505) and contains 15 mutation from WT-BM3 (SEQ ID NO:1), formed 4.3 in 47% yield and 473 turnovers (TTN) using 0.1% protein relative to EDA (entry 7). […] In contrast, when 1 mol % of the isolated hemin prosthetic group was used as catalyst, the single and double insertion products were produced in a 3.5 to 1 ratio (with a total product yield of 51%).
A representative procedure for P450-catalyzed N—H insertion is as follows. To an unsealed crimp vial, 60 μL of a P450 solution (67 or 133 μM) was added and the vial was sealed. A 12.5 mM solution of sodium dithionite in phosphate buffer (0.1 M, pH=8.0) was degassed by bubbling with argon in a 6 mL crimp-sealed vial. The headspace of the 2 mL vials containing P450 solution were flushed with argon (no bubbling). The buffer/dithionite solution (360 μL) was then added to each reaction vial via syringe, and the gas lines were disconnected from the vials. 10 μL of an 800 mM stock of aniline was added via a glass syringe, followed by 10 μL of a 340 mM stock of EDA (both stocks in MeOH). The reaction vials were then placed in a tray on a plate shaker and left to shake at 40 rpm. The final concentrations of the reagents were typically: 20 mM aniline, 8.5 mM EDA, 10 mM Na2S2O4, and 10 or 20 μM P450. After 12 h at 25° C., the vials were removed from the shaker and uncapped and 1 mL of cyclohexane was added, followed by 20 μL of a 20 mM solution of phenethyl alcohol (internal standard). The mixture was transferred to a 1.5 mL Eppendorf tube and vortexed and centrifuged (13,000×g, 1 min.). The organic layer was dried over sodium sulfate if necessary then analyzed by GC, with comparison to an authentically prepared sample that has been verified by proton NMR ([…], Varian, CDCl3).
Substitution is well-tolerated on the aniline partner on both the ortho and para positions. Reactions were analyzed by a Shimadzu GC with FID detector and J&W HP-5 column (30 m×0.32 mm, 0.25 μm film) and calibrated to an independently prepared sample of each product using phenethyl alcohol as internal standard. Reaction of aniline and EDA was also performed in milligram scale without any organic cosolvent to provide 4.3 in 65% isolated yield.
Calibration curves were plotted as follows. Yields of N—H insertion products were determined using calibration curves made with independently synthesized standards that have been verified by proton NMR, with comparison to known literature data (Baumann, L. K. et al. Organometallics. 2007, 26, 3995-4002; Anding, B. J. et al. Organometallics. 2013, 32, 2599-2607). Two stock solutions of product were made at 160 mM and 40 mM. To four or five samples containing 380 μL of buffer, product was added from either of the stock solutions such at a final concentration of 0.5-8.0 mM in 400 μL was obtained. 20 μL of internal standard was added to each eppendorf tube, then 1 mL of cyclohexane was added and the tubes were vortexed and centrifuged (13,000 ×g, 30 seconds). The organic layer was then analyzed by GC. The ratio of the areas under the internal standard and product peaks were plotted against the concentration for each solution. […]

[3] = P450BM3 compilation plate screen (GC, cyclopropane peaks); details: P450BM3 variants

| Molecule | TTN (C—H amination product 3) [1] | TTn [2] | % Yield [2] | ee (cis) ([3]; (R,S)-(S,R), chiral β-CDX GC) | de ([3]; diastereomeric excess = ([cis] − [trans])/([cis] + [trans])) | Absolute activity ([3]; sum of the area of the cyclopropane peaks over the area of the internal standard) |
| --- | --- | --- | --- | --- | --- | --- |
| BM3-CIS: 9-10A TS + F87V, T268A (protein, listed as Bacillus megaterium, cytochrome P450NADPH-P-450 reductase precursor, cytochrome P450 (BM3), CYP102A1, 9-10A TS + F87V, T268A) TIKEMPQPKTFGELKNLPLLNTDKPVQALMKIADELGEIFKFEAPGRVTRYLSSQRLIKEACDESRFDKNLSQALKFARDFAGDGLVTSWTHEKNWKKAHNILLPSFSQQAMKGYHAMMVDIAVQLVQKWERLNADEHIEVSEDMTRLTLDTIGLCGFNYRFNSFYRDQPHPFIISMVRALDEVMNKLQRANPDDPAYDENKRQFQEDIKVMNDLVDKIIADRKARGEQSDDLLTQMLNGKDPETGEPLDDGNIRYQIITFLIAGHEATSGLLSFALYFLVKNPHVLQKVAEEAARVLVDPVPSYKQVKQLKYVGMVLNEALRLWPTAPAFSLYAKEDTVLGGEYPLEKGDEVMVLIPQLHRDKTVWGDDVEEFRPERFENPSAIPQHAFKPFGNGQRACIGQQFALHEATLVLGMMLKHFDFEDHTNYELDIKETLTLKPKGFVVKAKSKKIPLGGIPSPSTEQSAKKVRKKAENAHNTPLLVLYGSNMGTAEGTARDLADIAMSKGFAPQVATLDSHAGNLPREGAVLIVTASYNGHPPDNAKQFVDWLDQASADEVKGVRYSVFGCGDKNWATTYQKVPAFIDETLAAKGAENIADRGEADASDDFEGTYEEWREHMWSDVAAYFNLDIENSEDNKSTLSLQFVDSAADMPLAKMHGAFSTNVVASKELQQPGSARSTRHLEIELPKEASYQEGDHLGVIPRNYEGIVNRVTARFGLDASQQIRLEAEEEKLAHLPLAKTVSVEELLQYVELQDPVTRTQLRAMAAKTVCPPHKVELEALLEKQAYKEQVLAKRLTMLELLEKYPACEMKFSEFIALLPSIRPRYYSISSSPRVDEKQASITVSVVSGEAWSGYGEYKGIASNYLAELQEGDTITCFISTPQSEFTLPKDPETPLIMVGPGTGVAPFRGFVQARKQLKEQGQSLGEAHLYFGCRSPHEDYLYQEELENAQSEGIITLHTAFSRMPNQPKTYVQHVMEQDGKKLIELLDQGAHFYICGDGSQMAPAVEATLMKSYADVHQVSEADARLWLQQLEEKGRYAKDVWAG | 9 | 363 | 36% |  |  |  |
| H2-4-D4: 9-10A TS + F87V, L75A, M177A, L181A, T268A, L437A (protein, listed as Bacillus megaterium, cytochrome P450NADPH-P-450 reductase precursor, cytochrome P450 (BM3), CYP102A1, 9-10A TS + F87V, L75A, M177A, L181A, T268A, L437A) TIKEMPQPKTFGELKNLPLLNTDKPVQALMKIADELGEIFKFEAPGRVTRYLSSQRLIKEACDESRFDKNLSQAAKFARDFAGDGLVTSWTHEKNWKKAHNILLPSFSQQAMKGYHAMMVDIAVQLVQKWERLNADEHIEVSEDMTRLTLDTIGLCGFNYRFNSFYRDQPHPFIISAVRAADEVMNKLQRANPDDPAYDENKRQFQEDIKVMNDLVDKIIADRKARGEQSDDLLTQMLNGKDPETGEPLDDGNIRYQIITFLIAGHEATSGLLSFALYFLVKNPHVLQKVAEEAARVLVDPVPSYKQVKQLKYVGMVLNEALRLWPTAPAFSLYAKEDTVLGGEYPLEKGDEVMVLIPQLHRDKTVWGDDVEEFRPERFENPSAIPQHAFKPFGNGQRACIGQQFALHEATLVLGMMLKHFDFEDHTNYELDIKETATLKPKGFVVKAKSKKIPLGGIPSPSTEQSAKKVRKKAENAHNTPLLVLYGSNMGTAEGTARDLADIAMSKGFAPQVATLDSHAGNLPREGAVLIVTASYNGHPPDNAKQFVDWLDQASADEVKGVRYSVFGCGDKNWATTYQKVPAFIDETLAAKGAENIADRGEADASDDFEGTYEEWREHMWSDVAAYFNLDIENSEDNKSTLSLQFVDSAADMPLAKMHGAFSTNVVASKELQQPGSARSTRHLEIELPKEASYQEGDHLGVIPRNYEGIVNRVTARFGLDASQQIRLEAEEEKLAHLPLAKTVSVEELLQYVELQDPVTRTQLRAMAAKTVCPPHKVELEALLEKQAYKEQVLAKRLTMLELLEKYPACEMKFSEFIALLPSIRPRYYSISSSPRVDEKQASITVSVVSGEAWSGYGEYKGIASNYLAELQEGDTITCFISTPQSEFTLPKDPETPLIMVGPGTGVAPFRGFVQARKQLKEQGQSLGEAHLYFGCRSPHEDYLYQEELENAQSEGIITLHTAFSRMPNQPKTYVQHVMEQDGKKLIELLDQGAHFYICGDGSQMAPAVEATLMKSYADVHQVSEADARLWLQQLEEKGRYAKDVWAG |  | 340 | 34% | −84 | 57 | 0.05244 |
